First the molecules themselves.
B1: GST-ZNF830 151-372 (E. coli, purified) (domain or fragment, UniProt Q96NB3 151-372, looked up)
chain: SGLSLLPDYEDEEEEEEEEEGDGERKRGDASKPLSDAQGKEHSVSSSREVTSSVLPNDFFSTNPPKAPIIPHSGSIEKAEIHEKVVERRENTAEALPEGFFDDPEVDARVRKVDAPKDQMDKEWDEFQKAMRQVNTISEAIVAEEDEEGRLDRQIGEIDEQIECYRRVEKLRNRQDEIKNKLKEILTIKELQKKEEENADSDDEGELQDLLSQDWRVKGALL
notes: source: E. coli BL21, purified (glutathione-Sepharose 4B)
B2: His-PPIL2 241-520 (E. coli, purified) (domain or fragment, UniProt Q13356 241-520, looked up)
chain: YSTGKVSASFTSTAMVPETTHEAAAIDEDVLRYQFVKKKGYVRLHTNKGDLNLELHCDLTPKTCENFIRLCKKHYYDGTIFHRSIRNFVIQGGDPTGTGTGGESYWGKPFKDEFRPNLSHTGRGILSMANSGPNSNRSQFFITFRSCAYLDKKHTIFGRVVGGFDVLTAMENVESDPKTDRPKEEIRIDATTVFVDPYEEADAQIAQERKTQLKVAPETKVKSSQPQAGSQGPQTFRQGVGKYINPAATKRAAEEEPSTSATVPMSKKKPSRGFGDFSSW
notes: source: E. coli BL21, purified (Ni-NTA)

Experiment [1] concerns the target B2. In words: pull-down; GST pull-down with purified GST-ZNF830 (full length or fragments) and His-PPIL2 (full length or fragments) expressed in E. coli; western blot and Coomassie brilliant blue. The conditions noted are these: both partners purified. In general terms: In western blotting, separated proteins are transferred to a membrane and probed.
For experiment [2], the target named is T1, GST-ZNF830 (E. coli, purified) (UniProt Q96NB3 1-372).
T1 construct: ZNF830, full length, GST-tagged (pGEX6T-1); also called GST-tagged ZNF830; source: E. coli BL21, purified (glutathione-Sepharose 4B)
T1 sequence (looked up): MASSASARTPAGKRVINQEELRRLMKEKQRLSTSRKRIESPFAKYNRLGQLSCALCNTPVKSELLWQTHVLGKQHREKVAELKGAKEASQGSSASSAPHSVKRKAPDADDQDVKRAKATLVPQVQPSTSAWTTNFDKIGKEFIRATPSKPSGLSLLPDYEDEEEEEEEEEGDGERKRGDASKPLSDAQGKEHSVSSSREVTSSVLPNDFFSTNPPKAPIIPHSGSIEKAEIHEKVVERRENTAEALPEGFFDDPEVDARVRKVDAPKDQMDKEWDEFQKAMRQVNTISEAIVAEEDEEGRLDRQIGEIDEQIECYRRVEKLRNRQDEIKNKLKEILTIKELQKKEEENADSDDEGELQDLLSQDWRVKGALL
The experiment is described as above. The settings on record: both partners purified.

Regarding B1, the binding result in experiment [1] is recorded as “binds”.

On to B2, for which, in experiment [2], the binding result is reported as “binds”.

Source of the values: paper PMC9452783, “PLK1-mediated phosphorylation of PPIL2 regulates HR via CtIP” (Frontiers in Cell and Developmental Biology, 2022).
